2 substances from PMC10827139 can be followed below.

Assay in all cases: crystal structure
Assay [1] deals with His-ICP0 (HSV-1 strain KOS infected cell protein 0, residues A636-Q776) (herpes simplex virus 1 (HSV-1), strain KOS).
For assay [2] the target is unchanged. This is another data set of the same source.
Assay [3] concerns the target proteolytic fragment of his-ICP0 391-776 (HSV-1 strain KOS) that crystallised (herpes simplex virus 1 (HSV-1), strain KOS).

Where two headings read alike, the source gives them in different places.

On to “His-ICP0 (HSV-1 strain KOS infected cell protein 0, residues A636-Q776) (domain or fragment)”, for which the stoichiometry N in assay [1] is 2; in assay [2], 4.
Turning to “proteolytic fragment of his-ICP0 391-776 (HSV-1 strain KOS) that crystallised (domain or fragment)”, the stoichiometry N in assay [3] turned out to be 2.

The term stoichiometry N denotes a count of units in the complex or per binding partner.
